According to publication PMC10106849:

Target: T1, RsCDF3 (Raphanus sativus, UniProt A0A6J0K2F2 1-435)
T1 sequence: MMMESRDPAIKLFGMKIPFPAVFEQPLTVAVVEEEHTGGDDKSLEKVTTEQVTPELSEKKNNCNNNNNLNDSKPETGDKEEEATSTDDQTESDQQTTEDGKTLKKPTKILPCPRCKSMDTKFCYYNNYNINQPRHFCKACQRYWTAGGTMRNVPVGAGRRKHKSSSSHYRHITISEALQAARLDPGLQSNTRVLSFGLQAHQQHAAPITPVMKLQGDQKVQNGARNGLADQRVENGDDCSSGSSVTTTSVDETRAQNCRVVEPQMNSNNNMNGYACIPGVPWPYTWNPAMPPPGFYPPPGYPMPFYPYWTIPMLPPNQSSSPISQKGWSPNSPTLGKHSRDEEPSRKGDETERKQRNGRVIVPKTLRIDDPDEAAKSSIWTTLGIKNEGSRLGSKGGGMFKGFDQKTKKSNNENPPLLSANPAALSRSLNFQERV
Assay: competition

B1: mP1 mutated probe (dsDNA)
DNA 1: AATACACATTTATAATGTCTAGTTAAACTTAC
DNA 2: GTAAGTTTAACTAGACATTATAAATGTGTATT
- binding result: no binding
